Residue numbers refer to the chain shown, from its start. Names may count otherwise.

To fix the notation:
B1: target 2 MT 5'PFS AAG 3'PFS CGA (mixed)
RNA 1: CACCCGUGCAAAAUUGCAGGGGUCUAAAACCUUCUCCAAAUUGUUUCAUCCU
RNA 2: GGGAAUGGAUCCACAUCUACGAAUUCAAGAGGAUGAAACAAUUUGGAGAAGCGAAGAUCGGAAGAGCACACGU
B2: target 2 MT 5'PFS UAC 3'PFS CGA (mixed)
RNA 1: B1 RNA 1
RNA 2: B1 RNA 2 with A27U, G29C
B3: target 2 MT 5'PFS UAU 3'PFS ACU (mixed)
RNA 1: B1 RNA 1
RNA 2: B1 RNA 2 with A27U, G29U, C52A, G53C, A54U
B4: target 2 MT 5'PFS CUG 3'PFS UCA (mixed)
RNA 1: B1 RNA 1
RNA 2: B1 RNA 2 with A27C, A28U, C52U, G53C
B5: target 2 MT 5'PFS CGA 3'PFS AAA (mixed)
RNA 1: B1 RNA 1
RNA 2: B1 RNA 2 with A27C, A28G, G29A, C52A, G53A
B6: target 2 MT 5'PFS UAA 3'PFS AGC (mixed)
RNA 1: B1 RNA 1
RNA 2: B1 RNA 2 with A27U, G29A, C52A, A54C
B7: target 2 MT 5'PFS AUG 3'PFS UGU (mixed)
RNA 1: B1 RNA 1
RNA 2: B1 RNA 2 with A28U, C52U, A54U
B8: target 2 MT 5'PFS GCC 3'PFS ACA (mixed)
RNA 1: B1 RNA 1
RNA 2: B1 RNA 2 with A27G, A28C, G29C, C52A, G53C
B9: target 2 MT 5'PFS UAC 3'PFS CGC (mixed)
RNA 1: B1 RNA 1
RNA 2: B1 RNA 2 with A27U, G29C, A54C
B10: target 2 MT 5'PFS ACC 3'PFS ACA (mixed)
RNA 1: B1 RNA 1
RNA 2: B1 RNA 2 with A28C, G29C, C52A, G53C
B11: target 2 MT 5'PFS UAA 3'PFS AGG (mixed)
RNA 1: B1 RNA 1
RNA 2: B1 RNA 2 with A27U, G29A, C52A, A54G
B12: target 2 MT 5'PFS UAA 3'PFS AGA (mixed)
RNA 1: B1 RNA 1
RNA 2: B1 RNA 2 with A27U, G29A, C52A
B13: target 2 MT 5'PFS AAU 3'PFS ACU (mixed)
RNA 1: B1 RNA 1
RNA 2: B1 RNA 2 with G29U, C52A, G53C, A54U
B14: target 2 MT 5'PFS GUC 3'PFS AGU (mixed)
RNA 1: B1 RNA 1
RNA 2: B1 RNA 2 with A27G, A28U, G29C, C52A, A54U
B15: target 2 MT 5'PFS AUA 3'PFS CAU (mixed)
RNA 1: B1 RNA 1
RNA 2: B1 RNA 2 with A28U, G29A, G53A, A54U
B16: target 2 MT 5'PFS AUA 3'PFS CAC (mixed)
RNA 1: B1 RNA 1
RNA 2: B1 RNA 2 with A28U, G29A, G53A, A54C
B17: target 2 MT 5'PFS AUA 3'PFS CAG (mixed)
RNA 1: B1 RNA 1
RNA 2: B1 RNA 2 with A28U, G29A, G53A, A54G
B18: target 2 MT 5'PFS GCU 3'PFS CGC (mixed)
RNA 1: B1 RNA 1
RNA 2: B1 RNA 2 with A27G, A28C, G29U, A54C
B19: target 2 MT 5'PFS AUA 3'PFS CAA (mixed)
RNA 1: B1 RNA 1
RNA 2: B1 RNA 2 with A28U, G29A, G53A
B20: target 2 MT 5'PFS AAG 3'PFS AGC (mixed)
RNA 1: B1 RNA 1
RNA 2: B1 RNA 2 with C52A, A54C
B21: target 2 MT 5'PFS UGG 3'PFS UAC (mixed)
RNA 1: B1 RNA 1
RNA 2: B1 RNA 2 with A27U, A28G, C52U, G53A, A54C
B22: target 2 MT 5'PFS AAG 3'PFS CGC (mixed)
RNA 1: B1 RNA 1
RNA 2: B1 RNA 2 with A54C
B23: target 2 MT 5'PFS CUG 3'PFS UCC (mixed)
RNA 1: B1 RNA 1
RNA 2: B1 RNA 2 with A27C, A28U, C52U, G53C, A54C
B24: target 2 MT 5'PFS AAG 3'PFS CGG (mixed)
RNA 1: B1 RNA 1
RNA 2: B1 RNA 2 with A54G
B25: target 2 MT 5'PFS GCC 3'PFS ACG (mixed)
RNA 1: B1 RNA 1
RNA 2: B1 RNA 2 with A27G, A28C, G29C, C52A, G53C, A54G
B26: target 2 MT 5'PFS CUG 3'PFS UCG (mixed)
RNA 1: B1 RNA 1
RNA 2: B1 RNA 2 with A27C, A28U, C52U, G53C, A54G
B27: target 2 MT 5'PFS AAG 3'PFS AGA (mixed)
RNA 1: B1 RNA 1
RNA 2: B1 RNA 2 with C52A
B28: target 2 MT 5'PFS UAU 3'PFS ACG (mixed)
RNA 1: B1 RNA 1
RNA 2: B1 RNA 2 with A27U, G29U, C52A, G53C, A54G
B29: target 2 MT 5'PFS UAC 3'PFS CGG (mixed)
RNA 1: B1 RNA 1
RNA 2: B1 RNA 2 with A27U, G29C, A54G
B30: target 2 MT 5'PFS AAG 3'PFS AGG (mixed)
RNA 1: B1 RNA 1
RNA 2: B1 RNA 2 with C52A, A54G
B31: target 2 MT 5'PFS GGU 3'PFS UGC (mixed)
RNA 1: B1 RNA 1
RNA 2: B1 RNA 2 with A27G, A28G, G29U, C52U, A54C
B32: target 2 MT 5'PFS GCC 3'PFS ACU (mixed)
RNA 1: B1 RNA 1
RNA 2: B1 RNA 2 with A27G, A28C, G29C, C52A, G53C, A54U
B33: target 2 MT 5'PFS CGA 3'PFS AAC (mixed)
RNA 1: B1 RNA 1
RNA 2: B1 RNA 2 with A27C, A28G, G29A, C52A, G53A, A54C
B34: target 1 insU 3' of 15,insA 3' of 8 (mixed)
RNA 1: CACCCGUGCAAAAAUGCAGGGGUCUAAAACUGAGCGGAUAACCUCUCUAUGG
RNA 2: GGGAAUGGAUCCACAUCUACGAAUUCGUACCAUAGAGUAGGUUAUACCGCUCACCGAGAUCGGAAGAGCACACGU
B35: target 1 C6G,G15C (mixed)
RNA 1: B34 RNA 1
RNA 2: GGGAAUGGAUCCACAUCUACGAAUUCGUACCAUAGACAGGUUAUCGGCUCACCGAGAUCGGAAGAGCACACGU
B36: target 1 G5U,C6G (mixed)
RNA 1: B34 RNA 1
RNA 2: B35 RNA 2 with C37G, G47U

This data set deals with T1, EsCas13d, nuclease-dead (Eubacterium siraeum, UniProt B0MS50, R295A;H300A;R849A;H854A).
T1 sequence: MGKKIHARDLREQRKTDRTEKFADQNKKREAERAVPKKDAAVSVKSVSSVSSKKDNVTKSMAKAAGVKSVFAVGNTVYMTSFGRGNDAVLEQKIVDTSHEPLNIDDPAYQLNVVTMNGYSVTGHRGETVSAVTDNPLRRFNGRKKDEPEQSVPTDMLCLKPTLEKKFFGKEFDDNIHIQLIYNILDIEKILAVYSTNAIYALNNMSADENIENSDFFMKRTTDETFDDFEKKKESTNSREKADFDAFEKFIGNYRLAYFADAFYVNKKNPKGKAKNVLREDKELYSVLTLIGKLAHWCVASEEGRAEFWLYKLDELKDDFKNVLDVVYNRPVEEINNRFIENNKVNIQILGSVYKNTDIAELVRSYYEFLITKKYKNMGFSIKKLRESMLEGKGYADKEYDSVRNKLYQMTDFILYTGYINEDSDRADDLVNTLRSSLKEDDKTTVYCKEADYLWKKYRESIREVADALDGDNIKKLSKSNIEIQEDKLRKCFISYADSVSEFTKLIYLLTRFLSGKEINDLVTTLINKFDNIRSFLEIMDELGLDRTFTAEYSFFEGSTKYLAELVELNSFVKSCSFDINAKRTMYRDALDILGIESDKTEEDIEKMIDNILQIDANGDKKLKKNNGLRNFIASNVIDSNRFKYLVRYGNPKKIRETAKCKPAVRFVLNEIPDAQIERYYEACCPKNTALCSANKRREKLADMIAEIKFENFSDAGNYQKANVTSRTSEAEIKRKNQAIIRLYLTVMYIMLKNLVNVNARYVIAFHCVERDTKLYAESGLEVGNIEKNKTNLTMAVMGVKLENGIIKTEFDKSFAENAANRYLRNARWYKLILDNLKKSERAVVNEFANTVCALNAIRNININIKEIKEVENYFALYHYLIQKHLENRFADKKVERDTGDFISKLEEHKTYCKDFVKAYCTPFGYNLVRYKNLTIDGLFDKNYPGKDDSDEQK
Briefly: crRNA (strand 1, pre-loaded); Mg2+; 40 mM Tris-HCl pH 7.5, 150 mM NaCl, 6 mM MgCl2, 1 mM DTT, 0.1% Tween-20, 0.2 mg/ml BSA; 25 C; 10 min per concentration, then washed. The note with it: tags: His6-TwinStrep-SUMO cleaved; N-terminal SNAP kept (SNAP-Surface 488); label: 3' end held by stalled T7 RNA polymerase.
For B1, the affinity, expressed as Kd, was 4.5 ± 0.5 nM.

As to B2, the Kd (as a rule, the concentration at which binding is half-saturated) worked out at 6 ± 1.9 nM.

For the molecule B3, the Kd was determined as 76 ± 25 nM.

Turning to B4, the Kd was determined as 5 ± 0.6 nM.

Take B5: the Kd was determined as 13 ± 5 nM.

Turning to B6, the Kd was 3.2 ± 0.4 nM.

Consider B7, for which the Kd came to 21 ± 2.6 nM.

B8 displayed a Kd of 10.8 ± 1.1 nM.

B9 came in with a Kd of 5.5 ± 0.8 nM.

B10 registered a Kd of 8 ± 4 nM.

As for B11, binding was characterised by a dissociation constant (Kd) of 4.5 ± 0.6 nM.

B12 had a Kd of 3.4 ± 0.6 nM.

In turn, B13 came in with a Kd of 6.2 ± 0.7 nM.

Turning to B14, binding was characterised by a dissociation constant (Kd) of 16.5 ± 2.6 nM.

With B15, binding was put at a Kd of 4.6 ± 0.8 nM.

In turn, B16 displayed a Kd of 5.4 ± 1.1 nM.

Consider B17, for which binding was put at a Kd of 8.4 ± 2.6 nM.

B18 gave a Kd of 12.1 ± 1.3 nM.

Take B19: the dissociation constant (Kd) was determined as 4.6 ± 1.3 nM.

Take B20: the dissociation constant (Kd) was determined as 3.7 ± 0.4 nM.

On to B21, for which binding was put at a Kd of 8.6 ± 0.9 nM.

Molecule B22 yielded a Kd of 3.34 ± 0.31 nM.

In turn, B23 displayed a Kd of 6.1 ± 0.5 nM.

As for B24, the Kd was found to be 3.4 ± 0.5 nM.

In turn, B25 returned a Kd of 12.2 ± 1.4 nM.

Consider B26, for which the Kd came to 3.1 ± 0.4 nM.

For the molecule B27, the Kd turned out to be 2.5 ± 0.28 nM.

As for B28, the affinity, expressed as Kd, was 58 ± 6 nM.

B29 yielded a Kd of 3.6 ± 0.5 nM.

Turning to B30, binding was put at a Kd of 5.7 ± 1 nM.

In turn, B31 had a Kd of 23 ± 4 nM.

The molecule B32 displayed a Kd of 12.9 ± 1.9 nM.

Molecule B33 registered a Kd of 7.5 ± 1.1 nM.

Turning to B34, binding was characterised by a dissociation constant (Kd) of 16.8 ± 2 nM.

On to B35, for which the affinity, expressed as Kd, was 47 ± 10 nM.

B36 yielded a Kd of 9.5 ± 0.32 nM.

The values above are taken from publication PMC10786891, “Massively parallel profiling of RNA-targeting CRISPR-Cas13d”.
